Results: patent publication US20030077740A1, “Presenilin/Crk binding polypeptides (PCBP) and methods of use thereof” (priority 2001, published 2003)

Columns and labels:
Format in all cases: binding
[1] = target: T1, large hydrophilic loop of PS1 (Homo sapiens, UniProt P49768); assay: co-immunoprecipitation in 293T cells, PS1 loop; settings: immunoprecipitation with anti-TAG, 48 hrs after transfection, PS1-FLAG loop
T1 construct: and a large hydrophilic loop (amino acids 263-407); expressed in transfected cells; host or cells: 293T human kidney cells, pCIS2 expression vector
Experimental: (§1) To confirm the yeast two-hybrid data, the interaction between PBP and PSs was assayed in mammalian cells by immunoprecipitation. Human kidney 293-T cells, and monkey kidney COS-7 cells were cultured in Dulbecco's modified Eagle's medium supplemented with 10% fetal calf serum at 37° C. in a 10% CO2 atmosphere. A nine-amino acid TAG epitope ([…]) (SEQ ID NO:6) was incorporated in-frame at the 3′ end of the PBP cDNA (PBP-TAG), and an eight amino acid FLAG epitope ([…]) (SEQ ID NO:7) was attached in frame at the 5′ end of the large hydrophilic loop of PS1 cDNA and at the 3′ end of full length PS1 cDNA as described previously (Kimura, H., Proc. Natl. Acad. Sci. (USA), 90:2165-2169 (1993)). The resulting fragments were inserted into the pCIS2 expression vector (Genentech, San Francisco, Calif.) for transient or constitutive expression. […]
(§2) For immunoprecipitation of the large hydrophilic loop of PSs or Crk with PBP, cells were lysed in RIPA buffer (100 mM NaCl, 0.5% NP-40, 0.5% DOC, 0.1% SDS, 50 mM Tris, pH 7.5, 1 mM PMSF and 1 μg/ml aprotinin, 1 μg/l leupeptin) on ice for 30 min. […] The bound antibodies were detected by the ECL-plus chemiluminescence system (Amersham, Arlington Heights, Ill.).

[2] = test system: large hydrophilic loop of PS2; assay: co-immunoprecipitation in 293T cells, PS2 loop; settings: immunoprecipitation with anti-TAG, 48 hrs after transfection
Experimental: as §1, §2

[3] = target: T2, full length PS1 (Homo sapiens, UniProt P49768); assay: co-immunoprecipitation with full length PS1 in 293T cell lines; settings: co-immunoprecipitation, 293T lines stably expressing PS1
T2 construct: three different clonal 293T cell lines which stably express full length PS1 were transfected with PBP-TAG; expressed in transfected cells; host or cells: clonal 293T cell lines stably expressing PS1
Text: (§3) To examine the interaction of PBP with the fill length PS molecule, three different clonal 293T cell lines which stably express full length PS1 were transfected with PBP-TAG and the ability of PS1 to bind to PBP assayed by immunoprecipitation. Forty-eight hrs after transfection, cells were lysed and proteins immunoprecipitated with 12CA5 (anti-TAG), which recognizes PBP-TAG (anti-PBP-TAG). The immunoprecipitates were subjected to polyacrylamide gel electrophoresis, transferred to Immobilon-P, and reacted with anti-TAG or an anti-serum against PS1.
as §2, with “min. For immunoprecipitation of full length PS1 with PBP, RIPA buffer with 1% NP40 but without DOC and SDS was used. Cell lysates were spun for 10 min at 10,000 g. The resulting supernatants were preadsorbed with anti-mouse IgG-agarose (Sigma) for 4 hours at 4° C. After centrifugation, antibody 12CA5 and anti-mouse IgG-agarose were added at 4° C. overnight.” for “min.”, “Ill.). […]” for “Ill.).”

[4] = target: T3, full length PS1 (Homo sapiens, UniProt P49768, L392V); assay: as above; settings: PS1 expressing the L392V mutation, overexpressing cells
T3 construct: three different clonal 293T cell lines which stably express full length PS1 were transfected with PBP-TAG; expressed in transfected cells; host or cells: clonal 293T cell lines stably expressing PS1
Text: as §3
as §2, with “min. For immunoprecipitation of full length PS1 with PBP, RIPA buffer with 1% NP40 but without DOC and SDS was used. Cell lysates were spun for 10 min at 10,000 g. The resulting supernatants were preadsorbed with anti-mouse IgG-agarose (Sigma) for 4 hours at 4° C. After centrifugation, antibody 12CA5 and anti-mouse IgG-agarose were added at 4° C. overnight.” for “min.”, “Ill.). […]” for “Ill.).”

[5] = target: T4, Crk (Homo sapiens, UniProt P46108); assay: co-immunoprecipitation with Crk in 293T cells; settings: anti-PBP-TAG immunoprecipitation, Western blot with antibody against Crk
T4 construct: expressed in transfected cells; host or cells: 293T cells
Experimental: Since PBP has two consensus sequences for Crk binding, the interaction between PBP and Crk was also examined. The expression plasmid containing PBP cDNA attached to TAG and a plasmid containing Crk cDNA were co-transfected into 293T cells. Forty-eight hrs later, cells were lysed and proteins immunoprecipitated with anti-PBP-TAG and run on SDS acrylamide gels.
For immunoprecipitation of the large hydrophilic loop of PSs or Crk with PBP, cells were lysed in RIPA buffer (100 mM NaCl, 0.5% NP-40, 0.5% DOC, 0.1% SDS, 50 mM Tris, pH 7.5, 1 mM PMSF and 1 μg/ml aprotinin, 1 μg/l leupeptin) on ice for 30 min. For immunoprecipitation of full length PS1 with PBP, RIPA buffer with 1% NP40 but without DOC and SDS was used. Cell lysates were spun for 10 min at 10,000 g. The resulting supernatants were preadsorbed with anti-mouse IgG-agarose (Sigma) for 4 hours at 4° C. After centrifugation, antibody 12CA5 and anti-mouse IgG-agarose were added at 4° C. overnight. After incubation with anti-mouse IgG-agarose, immunoprecipitates were subjected to SDS-polyacrylamide gel electrophoresis and transferred to Immobilon (Millipore, Bedford, Mass.). Western blot analysis with anti-FLAG and 12CA5 monoclonal antibodies or an antibody against Crk was then performed. The bound antibodies were detected by the ECL-plus chemiluminescence system (Amersham, Arlington Heights, Ill.).

T4 sequence (P46108 whole entry, species assumed): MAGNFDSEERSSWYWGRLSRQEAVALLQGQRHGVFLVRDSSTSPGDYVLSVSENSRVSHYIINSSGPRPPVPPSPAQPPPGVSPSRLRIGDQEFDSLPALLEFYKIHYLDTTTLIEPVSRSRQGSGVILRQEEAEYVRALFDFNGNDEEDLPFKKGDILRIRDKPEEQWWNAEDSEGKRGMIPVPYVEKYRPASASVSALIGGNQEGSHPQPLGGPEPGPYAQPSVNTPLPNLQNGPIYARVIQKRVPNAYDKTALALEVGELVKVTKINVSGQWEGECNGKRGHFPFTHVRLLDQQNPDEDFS

Substance: PBP: novel 2027 amino acid protein, 233 kD, binds presenilins and Crk; expressed from cDNA in cells (KYGVVICSFRGSVPQGLVLEIGETVQILEKCEGWYRGVSTKKPNVKGLFPANYIHLK; listed as Mus musculus)
- interaction with PS1 [1]: interacts
- interaction with large hydrophilic loop of PS2 [2]: interacts
- interaction with full length PS1 [3]: interacts
- immune precipitation of PS1 L392V with PBP [4]: immune precipitate with PBP
- co-precipitation with Crk [5]: co-precipitates
